B1: BTBD10 (parent)
chain: FVYENAKEGARNIRTSERVTLIVD
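Note: lentivirally expressed fusions sorted by FACS into six bins by GFP to DsRed ratio, PSI derived from sequencing read proportions per bin multiplied by bin number.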

Variants of: B1
Assay: protein stability index of a GFP-peptide fusion (GPS, HEK-293T) (PSI 1-6); higher = more stable
Settings: c terminus: a fixed tail appended
Work on FVYENAKEGSRNIRTSERVTLIVD [A10S] yielded a protein stability index of 2.01. FVYENAKEGTRNIRTSERVTLIVD [A10T] gave a protein stability index of 2.03. FVYENAKEGVRNIRTSERVTLIVD [A10V] showed a protein stability index of 2.1. FVYENAKEGWRNIRTSERVTLIVD [A10W] gave a protein stability index of 2.32. FVYENAKEGYRNIRTSERVTLIVD [A10Y] gave a protein stability index of 1.86. With FVYENAKEGAANIRTSERVTLIVD [R11A] the protein stability index was 2.29. In the case of FVYENAKEGACNIRTSERVTLIVD [R11C], the protein stability index is reported as 2.07. Work on FVYENAKEGADNIRTSERVTLIVD [R11D] yielded a protein stability index of 2.82. For FVYENAKEGAENIRTSERVTLIVD [R11E], the protein stability index was 3.09. Work on FVYENAKEGAFNIRTSERVTLIVD [R11F] yielded a protein stability index of 2.38. For FVYENAKEGAGNIRTSERVTLIVD [R11G], the protein stability index was 2.31. With FVYENAKEGAHNIRTSERVTLIVD [R11H] the protein stability index was 2.16. FVYENAKEGAINIRTSERVTLIVD [R11I] showed a protein stability index of 1.75. For FVYENAKEGAKNIRTSERVTLIVD [R11K], the protein stability index was 1.9. With FVYENAKEGALNIRTSERVTLIVD [R11L] the protein stability index was 2.67. FVYENAKEGAMNIRTSERVTLIVD [R11M] showed a protein stability index of 1.59. In the case of FVYENAKEGANNIRTSERVTLIVD [R11N], the protein stability index is reported as 1.83. Work on FVYENAKEGAPNIRTSERVTLIVD [R11P] yielded a protein stability index of 1.84. Variant FVYENAKEGAQNIRTSERVTLIVD [R11Q] has a protein stability index of 2.16. For FVYENAKEGASNIRTSERVTLIVD [R11S], the protein stability index was 2.18. For FVYENAKEGATNIRTSERVTLIVD [R11T], the protein stability index was 2.19. In the case of FVYENAKEGAVNIRTSERVTLIVD [R11V], the protein stability index is reported as 2.3. FVYENAKEGAYNIRTSERVTLIVD [R11Y] gave a protein stability index of 1.59. FVYENAKEGARAIRTSERVTLIVD [N12A] gave a protein stability index of 1.82. In the case of FVYENAKEGARCIRTSERVTLIVD [N12C], the protein stability index is reported as 1.51. Work on FVYENAKEGARDIRTSERVTLIVD [N12D] yielded a protein stability index of 1.93. With FVYENAKEGAREIRTSERVTLIVD [N12E] the protein stability index was 2.08. Work on FVYENAKEGARFIRTSERVTLIVD [N12F] yielded a protein stability index of 2.65. For FVYENAKEGARGIRTSERVTLIVD [N12G], the protein stability index was 1.98. In the case of FVYENAKEGARHIRTSERVTLIVD [N12H], the protein stability index is reported as 1.5. FVYENAKEGARIIRTSERVTLIVD [N12I] showed a protein stability index of 1.84. FVYENAKEGARKIRTSERVTLIVD [N12K] showed a protein stability index of 2.19. FVYENAKEGARLIRTSERVTLIVD [N12L] gave a protein stability index of 1.34. For FVYENAKEGARMIRTSERVTLIVD [N12M], the protein stability index was 1.56. FVYENAKEGARPIRTSERVTLIVD [N12P] gave a protein stability index of 2.65. FVYENAKEGARQIRTSERVTLIVD [N12Q] gave a protein stability index of 1.7. Work on FVYENAKEGARRIRTSERVTLIVD [N12R] yielded a protein stability index of 1.96. In the case of FVYENAKEGARSIRTSERVTLIVD [N12S], the protein stability index is reported as 1.97. FVYENAKEGARTIRTSERVTLIVD [N12T] showed a protein stability index of 1.93. With FVYENAKEGARVIRTSERVTLIVD [N12V] the protein stability index was 1.17. In the case of FVYENAKEGARWIRTSERVTLIVD [N12W], the protein stability index is reported as 3.12. Work on FVYENAKEGARYIRTSERVTLIVD [N12Y] yielded a protein stability index of 2.61. FVYENAKEGARNARTSERVTLIVD [I13A] showed a protein stability index of 1.77. With FVYENAKEGARNCRTSERVTLIVD [I13C] the protein stability index was 1.8. For FVYENAKEGARNDRTSERVTLIVD [I13D], the protein stability index was 2.52. Variant FVYENAKEGARNERTSERVTLIVD [I13E] has a protein stability index of 2.34. FVYENAKEGARNFRTSERVTLIVD [I13F] gave a protein stability index of 2.43. Variant FVYENAKEGARNGRTSERVTLIVD [I13G] has a protein stability index of 2.31. FVYENAKEGARNHRTSERVTLIVD [I13H] gave a protein stability index of 2.4. Variant FVYENAKEGARNKRTSERVTLIVD [I13K] has a protein stability index of 2. Variant FVYENAKEGARNLRTSERVTLIVD [I13L] has a protein stability index of 2.5. FVYENAKEGARNMRTSERVTLIVD [I13M] gave a protein stability index of 1.64. Variant FVYENAKEGARNNRTSERVTLIVD [I13N] has a protein stability index of 2.52. In the case of FVYENAKEGARNPRTSERVTLIVD [I13P], the protein stability index is reported as 2.21. FVYENAKEGARNQRTSERVTLIVD [I13Q] showed a protein stability index of 2.38. In the case of FVYENAKEGARNRRTSERVTLIVD [I13R], the protein stability index is reported as 2.4. For FVYENAKEGARNSRTSERVTLIVD [I13S], the protein stability index was 2.44. FVYENAKEGARNTRTSERVTLIVD [I13T] gave a protein stability index of 2.4. With FVYENAKEGARNVRTSERVTLIVD [I13V] the protein stability index was 2.06. For FVYENAKEGARNWRTSERVTLIVD [I13W], the protein stability index was 1.68. In the case of FVYENAKEGARNYRTSERVTLIVD [I13Y], the protein stability index is reported as 2.37. Variant FVYENAKEGARNIATSERVTLIVD [R14A] has a protein stability index of 2.17. Work on FVYENAKEGARNICTSERVTLIVD [R14C] yielded a protein stability index of 1.83. With FVYENAKEGARNIDTSERVTLIVD [R14D] the protein stability index was 2.33. Variant FVYENAKEGARNIETSERVTLIVD [R14E] has a protein stability index of 2.18. With FVYENAKEGARNIFTSERVTLIVD [R14F] the protein stability index was 2.38. With FVYENAKEGARNIGTSERVTLIVD [R14G] the protein stability index was 1.99. Work on FVYENAKEGARNIHTSERVTLIVD [R14H] yielded a protein stability index of 1.99. For FVYENAKEGARNIITSERVTLIVD [R14I], the protein stability index was 2.02. Work on FVYENAKEGARNIKTSERVTLIVD [R14K] yielded a protein stability index of 1.68. Work on FVYENAKEGARNILTSERVTLIVD [R14L] yielded a protein stability index of 1.55. In the case of FVYENAKEGARNIMTSERVTLIVD [R14M], the protein stability index is reported as 2.04. In the case of FVYENAKEGARNINTSERVTLIVD [R14N], the protein stability index is reported as 2.32. In the case of FVYENAKEGARNIPTSERVTLIVD [R14P], the protein stability index is reported as 1.85. Variant FVYENAKEGARNIQTSERVTLIVD [R14Q] has a protein stability index of 2.08. With FVYENAKEGARNISTSERVTLIVD [R14S] the protein stability index was 2.33. For FVYENAKEGARNITTSERVTLIVD [R14T], the protein stability index was 2.14. FVYENAKEGARNIVTSERVTLIVD [R14V] gave a protein stability index of 2.05. Work on FVYENAKEGARNIWTSERVTLIVD [R14W] yielded a protein stability index of 2.87. Work on FVYENAKEGARNIYTSERVTLIVD [R14Y] yielded a protein stability index of 2.85. For FVYENAKEGARNIRASERVTLIVD [T15A], the protein stability index was 2.26. With FVYENAKEGARNIRCSERVTLIVD [T15C] the protein stability index was 1.91. Work on FVYENAKEGARNIRDSERVTLIVD [T15D] yielded a protein stability index of 2.37. FVYENAKEGARNIRESERVTLIVD [T15E] showed a protein stability index of 2.48. In the case of FVYENAKEGARNIRFSERVTLIVD [T15F], the protein stability index is reported as 1.99. In the case of FVYENAKEGARNIRGSERVTLIVD [T15G], the protein stability index is reported as 2.36. For FVYENAKEGARNIRHSERVTLIVD [T15H], the protein stability index was 2.15. Variant FVYENAKEGARNIRISERVTLIVD [T15I] has a protein stability index of 1.68. Work on FVYENAKEGARNIRKSERVTLIVD [T15K] yielded a protein stability index of 2.25. Work on FVYENAKEGARNIRLSERVTLIVD [T15L] yielded a protein stability index of 1.47. In the case of FVYENAKEGARNIRMSERVTLIVD [T15M], the protein stability index is reported as 1.97. FVYENAKEGARNIRNSERVTLIVD [T15N] showed a protein stability index of 2.11. For FVYENAKEGARNIRPSERVTLIVD [T15P], the protein stability index was 1.81. FVYENAKEGARNIRQSERVTLIVD [T15Q] gave a protein stability index of 2.68.

Source: the supplement of paper PMC10567573
